From US20110190477A1 (G2 INFLAMMATION, published 2011)

Key:
Test in all cases: flow cytometry on transiently transfected L1.2 cells
[1] = biological target: T1, chimeric receptor 2. mHHH (mouse; human, UniProt P30993 1-39)
T1 construct: range 1-39; Transiently expressed on mouse L1.2 cells
T1 sequence: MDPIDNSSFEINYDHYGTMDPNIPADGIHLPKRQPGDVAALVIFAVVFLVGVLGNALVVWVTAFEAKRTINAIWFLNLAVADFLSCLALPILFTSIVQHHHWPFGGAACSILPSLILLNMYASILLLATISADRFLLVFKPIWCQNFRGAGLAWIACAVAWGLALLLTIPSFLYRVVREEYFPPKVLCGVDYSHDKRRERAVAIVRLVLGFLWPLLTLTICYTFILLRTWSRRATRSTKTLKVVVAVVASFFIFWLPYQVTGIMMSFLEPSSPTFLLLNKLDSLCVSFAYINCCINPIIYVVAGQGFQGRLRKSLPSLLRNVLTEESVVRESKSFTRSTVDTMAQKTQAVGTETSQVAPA
Procedure: (§1) A series of chimeric receptors comprising segments of mouse and human C5aR were constructed to identify the region of the C5a receptor that the antibodies bound. […] Each recombinant vector (5 μg diluted in DMEM) encoding a different chimeric receptor was transfected into 5×10⁵ mouse L1.2 cells using Lipofectamine 2000 (Invitrogen). Cells were grown in DMEM or RPMI (Invitrogen) plus 10% foetal bovine serum (Hyclone). After 24 hours or 48 hours, cells were harvested by centrifugation at 1,500 rpm for 5 min and resuspended in FACS buffer (phosphate buffered saline plus 2% bovine serum albumin). For staining with hAb-Q, 0.5×10⁵ transfected cells were incubated with 5 or 10 μg/ml antibody in a volume of 50 μl per well at 4° C. for 20 minutes. Cells were pelleted as above and rinsed 3 times with 150 μl FACS buffer before addition of 50 μl FITC-conjugated anti-human IgG diluted 1:200 or 1:300 (Sigma, F1641). This mix was incubated for 20 min at 4° C. before cells were pelleted, washed with FACS buffer 3 times and finally resuspended in 150-200 μl FACS buffer. Samples were analysed on a FACS Calibur (BD Biosciences).
(§2) To confirm that the humanised antibody hAb-Q, which was derived from mouse mAb 7F3 by CDR grafting, and therefore should contain the same antigen-binding site, had the same staining pattern as 7F3, transiently transfected cells expressing the different chimeric human/mouse C5aR were stained with hAb-Q and analysed by flow cytometry. The pattern of staining by hAb-Q was identical to that observed with 7F3. There was no staining by the secondary antibody (anti-hIgG-FITC) alone.

[2] = biological target: T2, chimeric receptor 3. mmHH (mouse; human, UniProt P30993 1-111)
T2 construct: range 1-111; Transiently expressed on mouse L1.2 cells
T2 sequence: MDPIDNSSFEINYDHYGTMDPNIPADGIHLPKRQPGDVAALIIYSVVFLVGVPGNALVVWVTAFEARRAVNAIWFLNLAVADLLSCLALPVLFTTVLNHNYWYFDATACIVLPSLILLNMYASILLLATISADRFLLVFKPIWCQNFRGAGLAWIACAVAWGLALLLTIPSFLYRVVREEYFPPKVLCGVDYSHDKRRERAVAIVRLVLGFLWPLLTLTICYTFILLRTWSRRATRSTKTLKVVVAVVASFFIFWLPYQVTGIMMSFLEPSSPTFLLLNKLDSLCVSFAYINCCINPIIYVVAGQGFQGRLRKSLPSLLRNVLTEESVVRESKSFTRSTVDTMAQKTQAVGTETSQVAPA
Procedure: as §1, §2

[3] = biological target: T3, chimeric receptor 6. HmHH (human; mouse, UniProt P30993 93-111)
T3 construct: range 93-111; Transiently expressed on mouse L1.2 cells
T3 sequence: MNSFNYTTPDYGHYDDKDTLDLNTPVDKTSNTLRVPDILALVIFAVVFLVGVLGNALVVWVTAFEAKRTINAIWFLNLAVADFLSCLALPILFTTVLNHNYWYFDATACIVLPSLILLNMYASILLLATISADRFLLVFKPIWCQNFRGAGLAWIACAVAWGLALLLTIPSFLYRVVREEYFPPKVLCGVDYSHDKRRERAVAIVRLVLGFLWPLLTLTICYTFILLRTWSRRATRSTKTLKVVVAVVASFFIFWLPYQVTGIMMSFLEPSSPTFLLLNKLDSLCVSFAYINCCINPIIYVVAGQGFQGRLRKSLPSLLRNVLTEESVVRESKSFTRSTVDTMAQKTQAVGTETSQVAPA
Procedure: as §1, §2

[4] = biological target: T4, chimeric receptor 8. HHHm (human; mouse, UniProt P30993 264-283, limits assumed)
T4 construct: Transiently expressed on mouse L1.2 cells
T4 sequence: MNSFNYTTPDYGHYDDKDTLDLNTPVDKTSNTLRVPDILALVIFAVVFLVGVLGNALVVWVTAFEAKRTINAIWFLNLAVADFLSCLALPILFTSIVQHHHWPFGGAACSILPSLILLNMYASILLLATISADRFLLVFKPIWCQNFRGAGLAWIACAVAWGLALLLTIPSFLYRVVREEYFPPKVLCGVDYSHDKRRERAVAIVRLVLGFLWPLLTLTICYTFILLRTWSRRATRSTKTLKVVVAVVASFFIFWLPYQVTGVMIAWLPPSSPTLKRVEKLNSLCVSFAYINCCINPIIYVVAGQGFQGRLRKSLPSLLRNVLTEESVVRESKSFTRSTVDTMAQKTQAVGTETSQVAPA
Procedure: as §1, §2

[5] = biological target: T5, chimeric receptor 11. mmHm (mouse; human, UniProt P30993 1-111; P30993 264-351, limits assumed)
T5 construct: Transiently expressed on mouse L1.2 cells
T5 sequence: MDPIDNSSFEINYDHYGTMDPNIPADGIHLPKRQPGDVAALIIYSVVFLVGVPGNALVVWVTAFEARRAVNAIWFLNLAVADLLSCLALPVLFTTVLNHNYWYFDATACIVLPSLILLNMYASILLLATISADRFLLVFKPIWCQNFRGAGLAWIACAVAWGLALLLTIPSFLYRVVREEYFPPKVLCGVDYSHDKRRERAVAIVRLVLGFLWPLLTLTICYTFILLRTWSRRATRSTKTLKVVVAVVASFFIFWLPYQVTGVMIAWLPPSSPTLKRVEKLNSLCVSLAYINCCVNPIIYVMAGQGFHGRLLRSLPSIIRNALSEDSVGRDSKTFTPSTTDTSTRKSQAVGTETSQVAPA
Procedure: as §1, §2

Measured: binding result

B1: humanized anti-C5aR antibody hAb-Q (antibody, human IgG4 S228P, kappa)
light: DVVMTQSPLSLPVTLGEPASISCRSSQSLVHSNGNTYLHWYLQKPGQSPQLLIYKVSNRFSGVPDRFSGSGSGTDFTLKISRVEAEDVGVYFCSQSTLVPLTFGQGTKLEIKRTVAAPSVFIFPPSDEQLKSGTASVVCLLNNFYPREAKVQWKVDNALQSGNSQESVTEQDSKDSTYSLSSTLTLSKADYEKHKVYACEVTHQGLSSPVTKSFNRGEC
heavy: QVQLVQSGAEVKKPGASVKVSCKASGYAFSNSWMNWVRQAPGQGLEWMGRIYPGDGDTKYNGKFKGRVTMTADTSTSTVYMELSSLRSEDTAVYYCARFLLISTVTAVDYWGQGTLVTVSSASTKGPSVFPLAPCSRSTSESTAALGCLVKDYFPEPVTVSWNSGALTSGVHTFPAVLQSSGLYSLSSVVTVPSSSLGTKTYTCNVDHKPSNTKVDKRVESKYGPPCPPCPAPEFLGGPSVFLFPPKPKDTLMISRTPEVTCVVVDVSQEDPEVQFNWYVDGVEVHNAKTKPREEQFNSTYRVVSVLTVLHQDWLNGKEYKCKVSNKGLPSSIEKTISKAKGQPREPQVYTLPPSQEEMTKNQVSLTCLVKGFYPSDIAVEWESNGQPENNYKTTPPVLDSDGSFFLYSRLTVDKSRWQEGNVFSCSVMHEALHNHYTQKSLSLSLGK
notes: IgG4 with the Ser228Pro mutation; also called antibody Q; anti-C5aR ab
binds: [1] | [2] | [3] | [4] | [5]
